We go through 40 molecules from US20180155451A1 (published 2018).

The labels stand for the following.
T1: FcγRIIb extracellular domain with C-terminal His tag (human, UniProt P31994 43-217)
T1 construct: extracellular domain; Expressed in FreeStyle293 cells; used as analyte in Biacore; also called FcgRIIb; 2b; not shown: C-terminal His tag
T1 sequence (looked up): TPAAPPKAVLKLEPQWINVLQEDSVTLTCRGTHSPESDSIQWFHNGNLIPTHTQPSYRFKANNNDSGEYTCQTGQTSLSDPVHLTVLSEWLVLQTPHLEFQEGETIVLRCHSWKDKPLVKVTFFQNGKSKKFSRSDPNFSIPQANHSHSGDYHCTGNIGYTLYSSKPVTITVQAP

B1: GpH7-B3 variant L328_14T/GpL16-k0 (Ho Ab) (antibody, human IgG1, kappa)
heavy: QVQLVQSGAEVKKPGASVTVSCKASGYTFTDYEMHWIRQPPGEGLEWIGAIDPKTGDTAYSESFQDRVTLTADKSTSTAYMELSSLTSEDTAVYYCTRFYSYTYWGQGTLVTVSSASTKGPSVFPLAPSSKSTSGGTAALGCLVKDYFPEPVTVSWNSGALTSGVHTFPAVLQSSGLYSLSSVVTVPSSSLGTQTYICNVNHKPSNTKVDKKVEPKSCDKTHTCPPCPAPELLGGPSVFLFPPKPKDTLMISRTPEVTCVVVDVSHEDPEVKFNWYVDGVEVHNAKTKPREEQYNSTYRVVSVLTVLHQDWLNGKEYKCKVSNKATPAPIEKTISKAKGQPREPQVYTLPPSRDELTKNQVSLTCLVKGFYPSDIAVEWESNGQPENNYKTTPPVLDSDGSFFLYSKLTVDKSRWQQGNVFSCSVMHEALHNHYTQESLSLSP
light: DIVMTQSPLSLPVTPGEPASISCQASESLVHSNRNTYLHWYLQKPGQSPQLLIYKVSNRFSGVPDRFSGSGSGTDFTLKISRVEAEDVGVYYCSQNTHVPPTFGQGTKVEIERTVAAPSVFIFPPSDEQLKSGTASVVCLLNNFYPREAKVQWKVDNALQSGNSQESVTEQDSKDSTYSLSSTLTLSKADYEKHKVYACEVTHQGLSSPVTKSFNRGEC
notes: Substitution in both H chains; position in EU numbering; also called L328T homodimerized antibody
B2: GpH7-B3 variant L328_19Q/GpL16-k0 (Ho Ab) (antibody, human IgG1, kappa)
heavy: not shown
light: B1 light
notes: Substitution in both H chains; position in EU numbering; also called L328Q homodimerized antibody
B3: GpH7-B3 variant S239_07I/GpL16-k0 (Ho Ab) (antibody, human IgG1, kappa)
heavy: not shown
light: B1 light
notes: Substitution in both H chains; position in EU numbering; also called S239I homodimerized antibody
B4: GpH7-B3 variant S239_09D/GpL16-k0 (Ho Ab) (antibody, human IgG1, kappa)
heavy: not shown
light: B1 light
notes: Substitution in both H chains; position in EU numbering; also called S239D homodimerized antibody
B5: GpH7-B3 variant T335_09D/GpL16-k0 (Ho Ab) (antibody, human IgG1, kappa)
heavy: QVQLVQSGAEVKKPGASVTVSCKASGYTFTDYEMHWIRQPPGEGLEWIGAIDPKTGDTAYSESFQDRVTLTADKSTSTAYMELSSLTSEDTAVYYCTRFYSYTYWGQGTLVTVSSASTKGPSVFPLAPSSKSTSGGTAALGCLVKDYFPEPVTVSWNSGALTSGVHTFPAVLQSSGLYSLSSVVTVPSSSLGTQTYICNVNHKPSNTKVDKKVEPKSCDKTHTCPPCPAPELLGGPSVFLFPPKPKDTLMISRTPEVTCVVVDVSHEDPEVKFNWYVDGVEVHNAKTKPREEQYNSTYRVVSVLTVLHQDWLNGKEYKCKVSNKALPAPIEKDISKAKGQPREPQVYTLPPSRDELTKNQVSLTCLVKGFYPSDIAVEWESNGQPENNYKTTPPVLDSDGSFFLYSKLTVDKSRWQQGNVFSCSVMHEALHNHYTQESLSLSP
light: B1 light
notes: Substitution in both H chains; position in EU numbering; also called T335D homodimerized antibody
B6: GpH7-B3 variant S239_01G/GpL16-k0 (Ho Ab) (antibody, human IgG1, kappa)
heavy: not shown
light: B1 light
notes: Substitution in both H chains; position in EU numbering; also called S239G homodimerized antibody
B7: GpH7-B3 variant S267_07I/GpL16-k0 (Ho Ab) (antibody, human IgG1, kappa)
heavy: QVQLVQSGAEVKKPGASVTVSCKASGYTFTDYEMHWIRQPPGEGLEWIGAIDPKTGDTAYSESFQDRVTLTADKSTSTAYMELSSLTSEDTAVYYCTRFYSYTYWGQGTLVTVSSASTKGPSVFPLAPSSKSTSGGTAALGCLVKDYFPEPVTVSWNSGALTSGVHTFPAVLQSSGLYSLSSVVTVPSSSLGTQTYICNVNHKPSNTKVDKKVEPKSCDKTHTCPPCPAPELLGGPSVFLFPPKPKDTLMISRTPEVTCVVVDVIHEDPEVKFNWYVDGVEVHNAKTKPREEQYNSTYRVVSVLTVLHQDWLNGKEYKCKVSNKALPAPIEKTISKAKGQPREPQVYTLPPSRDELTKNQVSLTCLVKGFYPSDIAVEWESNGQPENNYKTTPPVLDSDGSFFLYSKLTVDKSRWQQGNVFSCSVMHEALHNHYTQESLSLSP
light: B1 light
notes: Substitution in both H chains; position in EU numbering; also called S267I homodimerized antibody
B8: GpH7-B3 variant S337_09D/GpL16-k0 (Ho Ab) (antibody, human IgG1, kappa)
heavy: not shown
light: B1 light
notes: Substitution in both H chains; position in EU numbering; also called S337D homodimerized antibody
B9: GpH7-B3 variant S298_08L/GpL16-k0 (Ho Ab) (antibody, human IgG1, kappa)
heavy: not shown
light: B1 light
notes: Substitution in both H chains; position in EU numbering; also called S298L homodimerized antibody
B10: GpH7-B3 variant Y300_19Q/GpL16-k0 (Ho Ab) (antibody, human IgG1, kappa)
heavy: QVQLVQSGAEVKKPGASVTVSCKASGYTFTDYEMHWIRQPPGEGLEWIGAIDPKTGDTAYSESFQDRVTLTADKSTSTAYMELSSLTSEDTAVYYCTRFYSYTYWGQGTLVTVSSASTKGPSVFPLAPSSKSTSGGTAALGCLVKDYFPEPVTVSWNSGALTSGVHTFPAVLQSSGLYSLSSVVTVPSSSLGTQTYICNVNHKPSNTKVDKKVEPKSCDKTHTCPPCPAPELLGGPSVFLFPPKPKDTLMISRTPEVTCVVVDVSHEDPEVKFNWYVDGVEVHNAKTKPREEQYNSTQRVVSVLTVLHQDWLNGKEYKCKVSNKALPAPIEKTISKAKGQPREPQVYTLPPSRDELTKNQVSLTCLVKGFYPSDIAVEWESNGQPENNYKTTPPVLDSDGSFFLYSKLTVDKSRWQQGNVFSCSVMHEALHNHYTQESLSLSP
light: B1 light
notes: Substitution in both H chains; position in EU numbering; also called Y300Q homodimerized antibody
B11: GpH7-B3 variant P271_08L/GpL16-k0 (Ho Ab) (antibody, human IgG1, kappa)
heavy: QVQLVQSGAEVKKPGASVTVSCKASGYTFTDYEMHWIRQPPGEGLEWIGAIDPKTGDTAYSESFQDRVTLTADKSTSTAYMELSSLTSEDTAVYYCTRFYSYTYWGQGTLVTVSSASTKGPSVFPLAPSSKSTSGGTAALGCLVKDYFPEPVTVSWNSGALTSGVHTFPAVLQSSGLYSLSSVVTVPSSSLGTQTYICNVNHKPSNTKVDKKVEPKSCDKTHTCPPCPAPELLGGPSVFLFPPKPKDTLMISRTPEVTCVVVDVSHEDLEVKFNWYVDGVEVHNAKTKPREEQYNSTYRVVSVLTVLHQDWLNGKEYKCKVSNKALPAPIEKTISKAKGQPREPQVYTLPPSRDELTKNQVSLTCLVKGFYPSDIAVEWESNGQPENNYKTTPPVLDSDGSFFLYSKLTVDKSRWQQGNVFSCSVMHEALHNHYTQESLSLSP
light: B1 light
notes: Substitution in both H chains; position in EU numbering; also called P271L homodimerized antibody
B12: GpH7-B3 variant P331_04F/GpL16-k0 (Ho Ab) (antibody, human IgG1, kappa)
heavy: not shown
light: B1 light
notes: Substitution in both H chains; position in EU numbering; also called P331F homodimerized antibody
B13: GpH7-B3 variant S267_08L/GpL16-k0 (Ho Ab) (antibody, human IgG1, kappa)
heavy: not shown
light: B1 light
notes: Substitution in both H chains; position in EU numbering; also called S267L homodimerized antibody
B14: GpH7-B3 variant P271_01G/GpL16-k0 (Ho Ab) (antibody, human IgG1, kappa)
heavy: not shown
light: B1 light
notes: Substitution in both H chains; position in EU numbering; also called P271G homodimerized antibody
B15: GpH7-B3 variant S267_14T/GpL16-k0 (Ho Ab) (antibody, human IgG1, kappa)
heavy: not shown
light: B1 light
notes: Substitution in both H chains; position in EU numbering; also called S267T homodimerized antibody
B16: GpH7-B3 variant S267_10E/GpL16-k0 (Ho Ab) (antibody, human IgG1, kappa)
heavy: not shown
light: B1 light
notes: Substitution in both H chains; position in EU numbering; also called S267E homodimerized antibody
B17: GpH7-B3 variant T335_08L/GpL16-k0 (Ho Ab) (antibody, human IgG1, kappa)
heavy: not shown
light: B1 light
notes: Substitution in both H chains; position in EU numbering; also called T335L homodimerized antibody
B18: GpH7-B3 variant L328_15Y/GpL16-k0 (Ho Ab) (antibody, human IgG1, kappa)
heavy: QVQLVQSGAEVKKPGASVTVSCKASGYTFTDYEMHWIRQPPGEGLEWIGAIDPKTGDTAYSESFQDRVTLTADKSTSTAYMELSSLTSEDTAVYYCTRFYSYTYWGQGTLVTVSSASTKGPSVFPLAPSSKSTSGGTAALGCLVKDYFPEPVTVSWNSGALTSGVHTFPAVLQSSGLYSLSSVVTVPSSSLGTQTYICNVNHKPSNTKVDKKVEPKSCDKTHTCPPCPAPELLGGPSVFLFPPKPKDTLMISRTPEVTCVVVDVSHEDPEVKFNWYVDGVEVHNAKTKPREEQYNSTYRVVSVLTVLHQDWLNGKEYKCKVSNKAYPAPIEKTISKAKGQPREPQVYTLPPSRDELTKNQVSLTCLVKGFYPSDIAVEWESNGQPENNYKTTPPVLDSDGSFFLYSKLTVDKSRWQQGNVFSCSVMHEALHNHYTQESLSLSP
light: B1 light
notes: Substitution in both H chains; position in EU numbering; also called L328Y homodimerized antibody
B19: GpH7-B3 variant S267_03V/GpL16-k0 (Ho Ab) (antibody, human IgG1, kappa)
heavy: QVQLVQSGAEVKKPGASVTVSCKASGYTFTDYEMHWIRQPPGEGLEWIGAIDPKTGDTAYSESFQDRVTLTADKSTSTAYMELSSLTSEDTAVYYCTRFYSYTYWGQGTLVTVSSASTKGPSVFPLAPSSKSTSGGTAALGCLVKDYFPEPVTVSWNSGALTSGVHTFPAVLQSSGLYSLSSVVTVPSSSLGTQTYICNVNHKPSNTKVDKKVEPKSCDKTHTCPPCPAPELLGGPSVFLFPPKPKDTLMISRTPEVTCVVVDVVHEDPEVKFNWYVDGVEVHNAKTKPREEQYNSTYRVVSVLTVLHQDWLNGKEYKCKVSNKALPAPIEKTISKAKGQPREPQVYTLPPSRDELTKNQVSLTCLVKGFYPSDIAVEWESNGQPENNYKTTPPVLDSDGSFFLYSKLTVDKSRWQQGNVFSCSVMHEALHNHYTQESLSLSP
light: B1 light
notes: Substitution in both H chains; position in EU numbering; also called S267V homodimerized antibody
B20: GpH7-B3 variant S337_10E/GpL16-k0 (Ho Ab) (antibody, human IgG1, kappa)
heavy: not shown
light: B1 light
notes: Substitution in both H chains; position in EU numbering; also called S337E homodimerized antibody
B21: GpH7-B3 variant S239_18N/GpL16-k0 (Ho Ab) (antibody, human IgG1, kappa)
heavy: not shown
light: B1 light
notes: Substitution in both H chains; position in EU numbering; also called S239N homodimerized antibody
B22: GpH7-B3 variant P238_08L/GpL16-k0 (Ho Ab) (antibody, human IgG1, kappa)
heavy: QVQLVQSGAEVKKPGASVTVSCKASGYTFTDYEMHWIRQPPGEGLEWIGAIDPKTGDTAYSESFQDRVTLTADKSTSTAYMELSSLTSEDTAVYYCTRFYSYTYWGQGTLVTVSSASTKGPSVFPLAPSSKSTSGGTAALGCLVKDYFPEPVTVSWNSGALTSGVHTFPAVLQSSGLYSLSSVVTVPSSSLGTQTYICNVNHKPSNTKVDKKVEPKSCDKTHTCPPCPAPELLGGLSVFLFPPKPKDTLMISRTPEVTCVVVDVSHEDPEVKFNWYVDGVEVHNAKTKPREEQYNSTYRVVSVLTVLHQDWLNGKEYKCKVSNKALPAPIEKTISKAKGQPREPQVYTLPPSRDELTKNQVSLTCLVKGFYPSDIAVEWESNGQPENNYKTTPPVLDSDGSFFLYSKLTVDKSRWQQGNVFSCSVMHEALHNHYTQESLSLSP
light: B1 light
notes: Substitution in both H chains; position in EU numbering; also called P238L homodimerized antibody
B23: GpH7-B3 variant S267_09D/GpL16-k0 (Ho Ab) (antibody, human IgG1, kappa)
heavy: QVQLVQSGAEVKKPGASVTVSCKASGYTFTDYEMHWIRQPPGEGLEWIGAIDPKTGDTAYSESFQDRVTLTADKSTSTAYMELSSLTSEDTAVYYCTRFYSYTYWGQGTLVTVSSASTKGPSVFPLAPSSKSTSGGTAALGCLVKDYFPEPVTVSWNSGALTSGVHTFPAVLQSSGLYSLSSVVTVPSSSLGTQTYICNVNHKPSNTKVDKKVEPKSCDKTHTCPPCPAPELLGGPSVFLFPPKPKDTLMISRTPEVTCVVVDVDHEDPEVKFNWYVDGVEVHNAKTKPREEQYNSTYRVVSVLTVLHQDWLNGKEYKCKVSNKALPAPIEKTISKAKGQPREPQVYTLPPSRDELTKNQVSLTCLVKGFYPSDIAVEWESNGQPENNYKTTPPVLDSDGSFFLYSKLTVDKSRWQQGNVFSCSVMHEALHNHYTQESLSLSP
light: B1 light
notes: Substitution in both H chains; position in EU numbering; also called S267D homodimerized antibody
B24: GpH7-B3 variant T335_04F/GpL16-k0 (Ho Ab) (antibody, human IgG1, kappa)
heavy: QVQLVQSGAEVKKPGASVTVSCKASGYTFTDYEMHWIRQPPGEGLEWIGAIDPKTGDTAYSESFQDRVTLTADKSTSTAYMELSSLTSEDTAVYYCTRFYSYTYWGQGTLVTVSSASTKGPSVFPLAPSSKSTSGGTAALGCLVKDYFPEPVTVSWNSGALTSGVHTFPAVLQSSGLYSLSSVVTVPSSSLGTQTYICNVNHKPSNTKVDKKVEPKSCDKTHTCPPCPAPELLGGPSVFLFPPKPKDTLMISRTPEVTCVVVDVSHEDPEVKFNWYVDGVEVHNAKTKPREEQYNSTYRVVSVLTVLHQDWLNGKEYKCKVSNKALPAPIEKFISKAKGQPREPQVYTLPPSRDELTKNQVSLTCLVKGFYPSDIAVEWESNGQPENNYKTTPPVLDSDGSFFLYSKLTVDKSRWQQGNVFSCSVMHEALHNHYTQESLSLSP
light: B1 light
notes: Substitution in both H chains; position in EU numbering; also called T335F homodimerized antibody
B25: GpH7-B3 variant S267_02A/GpL16-k0 (Ho Ab) (antibody, human IgG1, kappa)
heavy: not shown
light: B1 light
notes: Substitution in both H chains; position in EU numbering; also called S267A homodimerized antibody
B26: GpH7-B3 variant S337_14T/GpL16-k0 (Ho Ab) (antibody, human IgG1, kappa)
heavy: not shown
light: B1 light
notes: Substitution in both H chains; position in EU numbering; also called S337T homodimerized antibody
B27: GpH7-B3 variant S239_08L/GpL16-k0 (Ho Ab) (antibody, human IgG1, kappa)
heavy: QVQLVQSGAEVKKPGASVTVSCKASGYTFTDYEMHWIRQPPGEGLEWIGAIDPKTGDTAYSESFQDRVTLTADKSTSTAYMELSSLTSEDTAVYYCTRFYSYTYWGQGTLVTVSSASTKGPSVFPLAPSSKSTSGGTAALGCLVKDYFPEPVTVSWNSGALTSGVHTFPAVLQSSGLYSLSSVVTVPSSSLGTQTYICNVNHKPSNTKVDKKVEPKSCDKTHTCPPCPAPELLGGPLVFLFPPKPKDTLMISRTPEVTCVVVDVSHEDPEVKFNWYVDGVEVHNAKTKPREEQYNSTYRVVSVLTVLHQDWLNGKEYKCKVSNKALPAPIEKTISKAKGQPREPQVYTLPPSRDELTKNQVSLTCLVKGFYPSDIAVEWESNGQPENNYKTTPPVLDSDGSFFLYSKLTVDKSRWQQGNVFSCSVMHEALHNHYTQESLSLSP
light: B1 light
notes: Substitution in both H chains; position in EU numbering; also called S239L homodimerized antibody
B28: GpH7-A5/GpH7-B3 variant L328_03V/GpL16-k0 (He Ab) (antibody, human IgG1, kappa)
heavy 1: not shown
heavy 2: not shown
light: B1 light
notes: Substitution in one H chain only; position in EU numbering; also called L328V heterodimerized antibody
B29: GpH7-A5/GpH7-B3 variant L328_07I/GpL16-k0 (He Ab) (antibody, human IgG1, kappa)
heavy 1: not shown
heavy 2: not shown
light: B1 light
notes: Substitution in one H chain only; position in EU numbering; also called L328I heterodimerized antibody
B30: GpH7-A5/GpH7-B3 variant K334_16H/GpL16-k0 (He Ab) (antibody, human IgG1, kappa)
heavy 1: not shown
heavy 2: not shown
light: B1 light
notes: Substitution in one H chain only; position in EU numbering; also called K334H heterodimerized antibody
B31: GpH7-A5/GpH7-B3 variant K334_18N/GpL16-k0 (He Ab) (antibody, human IgG1, kappa)
heavy 1: not shown
heavy 2: not shown
light: B1 light
notes: Substitution in one H chain only; position in EU numbering; also called K334N heterodimerized antibody
B32: GpH7-A5/GpH7-B3 variant L328_15Y/GpL16-k0 (He Ab) (antibody, human IgG1, kappa)
heavy 1: not shown
heavy 2: not shown
light: B1 light
notes: Substitution in one H chain only; position in EU numbering; also called L328Y heterodimerized antibody
B33: GpH7-A5/GpH7-B3 variant K334_19Q/GpL16-k0 (He Ab) (antibody, human IgG1, kappa)
heavy 1: not shown
heavy 2: not shown
light: B1 light
notes: Substitution in one H chain only; position in EU numbering; also called K334Q heterodimerized antibody
B34: GpH7-A5/GpH7-B3 variant K334_15Y/GpL16-k0 (He Ab) (antibody, human IgG1, kappa)
heavy 1: not shown
heavy 2: not shown
light: B1 light
notes: Substitution in one H chain only; position in EU numbering; also called K334Y heterodimerized antibody
B35: GpH7-A5/GpH7-B3 variant L328_04F/GpL16-k0 (He Ab) (antibody, human IgG1, kappa)
heavy 1: not shown
heavy 2: not shown
light: B1 light
notes: Substitution in one H chain only; position in EU numbering; also called L328F heterodimerized antibody
B36: GpH7-A5/GpH7-B3 variant P238_08L/GpL16-k0 (He Ab) (antibody, human IgG1, kappa)
heavy 1: not shown
heavy 2: not shown
light: B1 light
notes: Substitution in one H chain only; position in EU numbering; also called P238L heterodimerized antibody
B37: GpH7-A5/GpH7-B3 variant L328_06M/GpL16-k0 (He Ab) (antibody, human IgG1, kappa)
heavy 1: not shown
heavy 2: not shown
light: B1 light
notes: Substitution in one H chain only; position in EU numbering; also called L328M heterodimerized antibody
B38: GpH7-A5/GpH7-B3 variant L328_19Q/GpL16-k0 (He Ab) (antibody, human IgG1, kappa)
heavy 1: not shown
heavy 2: not shown
light: B1 light
notes: Substitution in one H chain only; position in EU numbering; also called L328Q heterodimerized antibody
B39: GpH7-A5/GpH7-B3 variant P271_01G/GpL16-k0 (He Ab) (antibody, human IgG1, kappa)
heavy 1: not shown
heavy 2: not shown
light: B1 light
notes: Substitution in one H chain only; position in EU numbering; also called P271G heterodimerized antibody
B40: GpH7-A5/GpH7-B3 variant L328_14T/GpL16-k0 (He Ab) (antibody, human IgG1, kappa)
heavy 1: not shown
heavy 2: not shown
light: B1 light
notes: Substitution in one H chain only; position in EU numbering; also called L328T heterodimerized antibody

The target of the first test is T1, FcγRIIb extracellular domain with …. Nature of the test: SPR (Biacore), antibody captured on antigen-peptide chip, FcgRIIb as analyte; binding relative to GpH7-B3/GpL16-k0 (HoCon Ab) = 100.
In the case of B1, the Ho/Con_2b is 146 % of control.
With B2, the Ho/Con_2b is 111 % of control.
Still for that read-out and setting: as for B3, the figure is 108 % of control.
Same read-out and setting: as for B4, the figure is 224 % of control; as for B5, 116 % of control.
As to B6, the Ho/Con_2b is 174 % of control.
Consider B7, for which the Ho/Con_2b is 213 % of control.
As to B8, the Ho/Con_2b is 116 % of control.
The same measure, in the same setting: as for B9, the figure is 115 % of control; as for B10, 124 % of control.
For the molecule B11, the Ho/Con_2b was 113 % of control.
With B12, the Ho/Con_2b was 113 % of control.
As for B13, the Ho/Con_2b was 109 % of control.
Consider B14, for which the Ho/Con_2b is 229 % of control.
On to B15, for which the Ho/Con_2b was 106 % of control.
For B16, the Ho/Con_2b is 396 % of control.
The same measure, in the same setting: as for B17, the figure is 106 % of control; as for B18, 272 % of control; as for B19, 206 % of control.
On the same count and under the same terms, as for B20, the figure is 109 % of control; as for B21, 125 % of control; as for B22, 235 % of control.
Turning to B23, the Ho/Con_2b is 327 % of control.
The same measure, in the same setting: as for B24, the figure is 107 % of control.
In the case of B25, the Ho/Con_2b is 274 % of control.
B26: the Ho/Con_2b was 110 % of control.
Take B27: the Ho/Con_2b is 142 % of control.

A further test has the same target. As to the kind of experiment: SPR (Biacore), antibody captured on antigen-peptide chip, FcgRIIb as analyte; binding relative to GpH7-A5/GpH7-B3/GpL16-k0 (HeCon Ab) = 100.
For the molecule B28, the He/Con_2b is 126 % of control.
Regarding B29, the He/Con_2b is 160 % of control.
For the molecule B30, the He/Con_2b was 113 % of control.
On to B31, for which the He/Con_2b is 115 % of control.
As to B32, the He/Con_2b is 193 % of control.
Regarding B33, the He/Con_2b is 109 % of control.
Still for that read-out and setting: as for B34, the figure is 109 % of control; as for B35, 219 % of control; as for B36, 204 % of control.
For the molecule B37, the He/Con_2b was 142 % of control.
Take B38: the He/Con_2b is 105 % of control.
As to B39, the He/Con_2b was 193 % of control.
Consider B40, for which the He/Con_2b is 141 % of control.
